Experimental data taken from patent US12534534 (F STAR BETA, dated 2026).
Changes are numbered by the printed parent chain. In names and notes the source's numbering stands. One block for each binder: values may come before it.

Key:
hCD137-mFc-Avi = target: T1, hCD137-mFc-Avi (human, UniProt Q07011 24-186); experiment: ELISA, hCD137-mFc-Avi coated, 100 nM antibody, competitor CD137L-His; normalised to G1/11D4 = 0 and G1/MOR7480.1 = 100; mean of n=2
T1 construct: dimer; also called human CD137-mFc-Avi; human CD137-mFc
Description: The following day, plates were washed with PBST (PBS+0.05% Tween20™) and blocked with PBS+1% BSA (Sigma, A3059-500G) for 1 hour at room temperature with agitation. After blocking, the plates were washed again with PBST. A 100 nM dilution of each test antibody was prepared in PBS+1% BSA and added to the CD137-coated plates and incubated for 1 hour at room temperature with agitation. […] The plates were then washed with PBST and then incubated with anti-his secondary antibody (R&D Systems, MAB050H) at a 1 in 1000 dilution in PBS for 1 hour at room temperature with agitation. The plates were then washed with PBST and incubated with TMB detection reagent (Thermo Fisher Scientific, 002023) until the positive control wells turned blue and then the reaction was stopped with the addition of 2N H_2SO_4. Plates were read at 450 nm using the plate reader with Gen5 Software, BioTek. Absorbance values of 630 nm were subtracted from those of 450 nm (Correction). The subtracted absorbance values were plotted vs the log concentration of antibody and the resulting curves were fitted using the log (inhibitor) vs response equation in GraphPad Prism.

[1] = target: human CD137 on DO11.10-hCD137 cells (human, UniProt Q07011 24-255); experiment: cell-based or functional assay
CD40-mFc = target: T2, CD40-mFc (human, UniProt P25942 21-193); experiment: SPR, antigen immobilised on CM5 chip
T2 construct: in-house produced; not shown: mFc part

NGFR-Fc = target: T3, NGFR-Fc (human, UniProt P08138 29-250); experiment: SPR, antigen immobilised on CM5 chip
T3 construct: bought; also called NGFR (R&D Systems, 367-NR-050/CF); not shown: Fc part of the bought fusion
T3 sequence (looked up): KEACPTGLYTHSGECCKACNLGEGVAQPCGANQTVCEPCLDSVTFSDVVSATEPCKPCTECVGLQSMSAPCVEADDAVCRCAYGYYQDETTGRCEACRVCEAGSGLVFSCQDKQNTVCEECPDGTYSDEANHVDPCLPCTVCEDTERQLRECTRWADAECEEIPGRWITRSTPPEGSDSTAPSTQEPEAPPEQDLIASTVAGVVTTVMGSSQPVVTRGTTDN

GITR-hFc-Avi = target: T4, GITR-hFc-Avi (human, UniProt Q9Y5U5 26-161); experiment: SPR, antigen immobilised on CM5 chip
T4 construct: in-house produced; not shown: hFc and Avi part
T4 sequence: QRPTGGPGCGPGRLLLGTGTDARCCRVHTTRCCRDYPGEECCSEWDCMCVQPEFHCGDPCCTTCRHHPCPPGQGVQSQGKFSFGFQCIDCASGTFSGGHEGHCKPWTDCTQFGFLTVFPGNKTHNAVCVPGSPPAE

TNFRSF1B-Fc = target: T5, TNFRSF1B-Fc (human, UniProt P20333 23-257); experiment: SPR, antigen immobilised on CM5 chip
T5 construct: bought; also called TNFRSF1B (R&D Systems, 726-R2-050); not shown: Fc part of the bought fusion
T5 sequence (looked up): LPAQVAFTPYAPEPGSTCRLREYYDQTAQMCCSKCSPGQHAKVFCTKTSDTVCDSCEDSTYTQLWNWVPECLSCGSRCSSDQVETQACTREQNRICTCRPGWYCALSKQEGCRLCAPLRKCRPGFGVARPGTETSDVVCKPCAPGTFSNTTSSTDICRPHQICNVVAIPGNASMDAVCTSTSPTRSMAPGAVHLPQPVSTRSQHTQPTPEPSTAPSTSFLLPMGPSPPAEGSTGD

TNFRSF1A-Fc = target: T6, TNFRSF1A-Fc (human, UniProt P19438 30-211, limits assumed); experiment: SPR, antigen immobilised on CM5 chip
T6 construct: bought; also called TNFRSF1A (R&D Systems, 372-RI-050/CF); not shown: Fc part of the bought fusion
T6 sequence (looked up): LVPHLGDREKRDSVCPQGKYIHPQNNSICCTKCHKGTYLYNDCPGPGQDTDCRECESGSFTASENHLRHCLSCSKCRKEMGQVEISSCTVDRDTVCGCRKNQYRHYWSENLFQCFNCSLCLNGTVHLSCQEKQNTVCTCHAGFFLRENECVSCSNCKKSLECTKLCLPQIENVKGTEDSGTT

DR6-Fc = target: T7, DR6-Fc (human, UniProt O75509 42-349, limits assumed); experiment: SPR, antigen immobilised on CM5 chip
T7 construct: bought; also called human DR6 (R&D Systems, 144-DR-100); not shown: Fc part of the bought fusion
T7 sequence (looked up): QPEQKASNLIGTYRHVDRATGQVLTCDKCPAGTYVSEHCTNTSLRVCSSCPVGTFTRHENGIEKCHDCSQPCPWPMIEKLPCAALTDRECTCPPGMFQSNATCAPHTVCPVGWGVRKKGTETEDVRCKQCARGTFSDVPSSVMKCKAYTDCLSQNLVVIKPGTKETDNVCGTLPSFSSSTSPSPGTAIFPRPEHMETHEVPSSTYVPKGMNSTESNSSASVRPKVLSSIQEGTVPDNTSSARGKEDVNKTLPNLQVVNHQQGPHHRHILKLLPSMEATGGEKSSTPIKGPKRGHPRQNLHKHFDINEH

% CD137 ligand blocking activity (hCD137-mFc-Avi): 107%
EC50 (nM), mIL-2 release, DO11.10-hCD137 T cell assay, crosslinked (mean of n = 2) [1]: 13.4 nM
Emax (mIL-2 pg/ml), DO11.10-hCD137 T cell assay, crosslinked [1]: 18100 pg/mL
B1: FS20-22-49AA/FS30-5-37 (bispecific antibody, human IgG1, kappa, L234A L235A, V domains shown)
VH: EVQLLESGGGLVQPGGSLRLNCAASGFTFSSYAMSWVRQAPGKGLEWVSAISGSGGSTYYADSVKGRFTISRDNSKNTLYLQMNSLRAEDTAVYYCARSYDKYWGSSIYSGLDYWGQGTLVTVSS
VL: EIVLTQSPGTLSLSPGERATLSCRASQSVSSSYLAWYQQKPGQAPRLLIYGASSRATGIPDRFSGSGSGTDFTLTISRLEPEDFAVYYCQQYYSYYPVTFGQGTKVEIKR
notes: M100D to I and M100H to L against FS30-5; also called FS30-5-37 in mAb^2 format
binding result (CD40-mFc): no binding (tested: 1 µM (protocol of Example 3.1))
binding result (NGFR-Fc): no binding (tested: 1 µM (protocol of Example 3.1))
binding result (GITR-hFc-Avi): no binding (tested: 1 µM (protocol of Example 3.1))
binding result (TNFRSF1B-Fc): no binding (tested: 1 µM (protocol of Example 3.1))
binding result (TNFRSF1A-Fc): no binding (tested: 1 µM (protocol of Example 3.1))
binding result (DR6-Fc): no binding (tested: 1 µM (protocol of Example 3.1))

% CD137 ligand blocking activity (hCD137-mFc-Avi): 53.8%
EC50 (nM), mIL-2 release, DO11.10-hCD137 T cell assay, crosslinked (mean of n = 2) [1]: 9.5 nM
Emax (mIL-2 pg/ml), DO11.10-hCD137 T cell assay, crosslinked [1]: 17200 pg/mL
B5: FS20-22-49AA/FS30-10-12 (bispecific antibody, human IgG1, kappa, L234A L235A, V domains shown)
VH: EVQLLESGGGLVQPGGSLRLSCAASGFTFSSYDMSWVRQAPGKGLEWVSDIDPTGSKTDYADSVKGRFTISRDNSKNTLYLQMNSLRAEDTAVYYCARDLTVYGFDYWGQGTLVTVSS
VL: EIVLTQSPGTLSLSPGERATLSCRASQSVSSSYLAWYQQKPGQAPRLLIYGASSRATGIPDRFSGSGSGTDFTLTISRLEPEDFAVYYCQQSYSYPVTFGQGTKVEIKR
notes: M97 (Kabat) to T against FS30-10; also called FS30-10-12 in mAb^2 format
binding result (CD40-mFc): no binding (tested: 1 µM (protocol of Example 3.1))
binding result (NGFR-Fc): no binding (tested: 1 µM (protocol of Example 3.1))
binding result (GITR-hFc-Avi): no binding (tested: 1 µM (protocol of Example 3.1))
binding result (TNFRSF1B-Fc): no binding (tested: 1 µM (protocol of Example 3.1))
binding result (TNFRSF1A-Fc): no binding (tested: 1 µM (protocol of Example 3.1))
binding result (DR6-Fc): no binding (tested: 1 µM (protocol of Example 3.1))

Second part, the binder before the results:

B2: FS20-22-49AA/FS30-35-14 (bispecific antibody, human IgG1, kappa, L234A L235A, V domains shown)
VH: EVQLLESGGGLVQPGGSLRLSCAASGFTFSAYNIHWVRQAPGKGLEWVSDISPYGGATNYADSVKGRFTISRDNSKNTLYLQMNSLRAEDTAVYYCARNLYELSAYSYGADYWGQGTLVTVSS
VL: B1 VL with S94Y, Y95S, Y96S, V98I
notes: M100F (Kabat) to A against FS30-35; also called FS30-35-14 in mAb^2 format
% CD137 ligand blocking activity (hCD137-mFc-Avi): 6.6%
EC50 (nM), mIL-2 release, DO11.10-hCD137 T cell assay, crosslinked (mean of n = 2) [1]: 5.1 nM
Emax (mIL-2 pg/ml), DO11.10-hCD137 T cell assay, crosslinked [1]: 19800 pg/mL
binding result (CD40-mFc): no binding (tested: 1 µM (protocol of Example 3.1))
binding result (NGFR-Fc): no binding (tested: 1 µM (protocol of Example 3.1))
binding result (GITR-hFc-Avi): no binding (tested: 1 µM (protocol of Example 3.1))
binding result (TNFRSF1B-Fc): no binding (tested: 1 µM (protocol of Example 3.1))
binding result (TNFRSF1A-Fc): no binding (tested: 1 µM (protocol of Example 3.1))
binding result (DR6-Fc): no binding (tested: 1 µM (protocol of Example 3.1))

B3: FS20-22-49AA/FS30-10-3 (bispecific antibody, human IgG1, kappa, L234A L235A, V domains shown)
VH: B5 VH with T101N
VL: B5 VL
notes: M97 (Kabat) to N against FS30-10; also called FS30-10-3 in mAb^2 format
% CD137 ligand blocking activity (hCD137-mFc-Avi): 49.4%
EC50 (nM), mIL-2 release, DO11.10-hCD137 T cell assay, crosslinked (mean of n = 2) [1]: 6.1 nM
Emax (mIL-2 pg/ml), DO11.10-hCD137 T cell assay, crosslinked [1]: 17000 pg/mL
binding result (CD40-mFc): no binding (tested: 1 µM (protocol of Example 3.1))
binding result (NGFR-Fc): no binding (tested: 1 µM (protocol of Example 3.1))
binding result (GITR-hFc-Avi): no binding (tested: 1 µM (protocol of Example 3.1))
binding result (TNFRSF1B-Fc): no binding (tested: 1 µM (protocol of Example 3.1))
binding result (TNFRSF1A-Fc): no binding (tested: 1 µM (protocol of Example 3.1))
binding result (DR6-Fc): no binding (tested: 1 µM (protocol of Example 3.1))

B4: FS20-22-49AA/FS30-10-16 (bispecific antibody, human IgG1, kappa, L234A L235A, V domains shown)
VH: B5 VH with T101L
VL: B5 VL
notes: M97 (Kabat) to L against FS30-10; also called FS30-10-16 in mAb^2 format
% CD137 ligand blocking activity (hCD137-mFc-Avi): 48.1%
EC50 (nM), mIL-2 release, DO11.10-hCD137 T cell assay, crosslinked (mean of n = 2) [1]: 4.7 nM
Emax (mIL-2 pg/ml), DO11.10-hCD137 T cell assay, crosslinked [1]: 16300 pg/mL
binding result (CD40-mFc): no binding (tested: 1 µM (protocol of Example 3.1))
binding result (NGFR-Fc): no binding (tested: 1 µM (protocol of Example 3.1))
binding result (GITR-hFc-Avi): no binding (tested: 1 µM (protocol of Example 3.1))
binding result (TNFRSF1B-Fc): no binding (tested: 1 µM (protocol of Example 3.1))
binding result (TNFRSF1A-Fc): no binding (tested: 1 µM (protocol of Example 3.1))
binding result (DR6-Fc): no binding (tested: 1 µM (protocol of Example 3.1))
